Assay results taken from publication PMC12060060 (Investigative Ophthalmology & Visual Science, 2025).

Target: the molecule itself
Assay: dynamic light scattering

B1: Q147E deamidated αA-crystallin (recombinant human) (natural protein, UniProt P02489 1-173, looked up)
chain: MDVTIQHPWFKRTLGPFYPSRLFDQFFGEGLFEYDLLPFLSSTISPYYRQSLFRTVLDSGISEVRSDRDKFVIFLDVKHFSPEDLTVKVQDDFVEIHGKHNERQDDHGYISREFHRRYRLPSNVDQSALSCSLSADGMLTFCGPKIETGLDATHAERAIPVSREEKPTSAPSS
B1: binds.
